These results are taken from patent publication US20260176336A1 (MESTAG THERAPEUTICS, published 2026).

B1: Clone 4.3 (bispecific antibody, human IgG1, kappa, L234A L235A)
heavy 1: not shown
heavy 2: QVQLVQSGAEVKKPGASVKVSCKASGYTFTGYYMHWVRQAPGQGLEWMGWIYPNTGGVNYAQNFQGRVTMTRDTSISTAYMELSRLRSDDTAVYYCARDDYNKNLDYWGQGTLVTVSSASTKGPSVFPLAPSSKSTSGGTAALGCLVKDYFPEPVTVSWNSGALTSGVHTFPAVLQSSGLYSLSSVVTVPSSSLGTQTYICNVNHKPSNTKVDKKVEPKSCDKTHTCPPCPAPEAAGGPSVFLFPPKPKDTLMISRTPEVTCVVVDVSHEDPEVKFNWYVDGVEVHNAKTKPREEQYNSTYRVVSVLTVLHQDWLNGKEYKCKVSNKALPAPIEKTISKAKGQPREPQVCTLPPSRDELTKNQVSLSCAVKGFYPSDIAVEWESNGQPENNYKTTPPVLDSDGSFFLVSKLTVDKSRWQQGNVFSCSVMHEALHNHYTQKSLSLSPG
light: not shown
notes: FAP:LTBR 1:1 heterodimer of LTBR VHH (clone 1.6) paired with FAP Fab (clone 3.6), human IgG1 LALA
B2: Clone 4.4 (bispecific antibody, human IgG1, kappa, L234A L235A)
heavy 1: not shown
heavy 2: B1 heavy 2
light: not shown
notes: FAP:LTBR 2:1 heterodimer of FAP mAb (clone 3.6) with C terminal fused LTBR VHH (clone 1.6), human IgG1 LALA
B3: Clone 4.6 (bispecific antibody, human IgG1, kappa, L234A L235A)
heavy 1: not shown
heavy 2: B1 heavy 2
light: not shown
notes: FAP:LTBR 2:1 heterodimer of FAP mAb (clone 3.6) with C terminal fused LTBR VHH (clone 1.7), human IgG1 LALA
B4: Clone 4.2 (bispecific antibody, human IgG1, kappa, L234A L235A)
heavy 1: not shown
heavy 2: QLQLQESGPGLVKPSETLSLTCTVSGGSISSSTYYWGWIRQPPGKGLEWIGSIFYSGNTYYNPSLKSRVTISVDTSKNHFSLKLSSVTAADTAVYYCAREIIEPRPGYFDYWGQGTLVTVSSASTKGPSVFPLAPSSKSTSGGTAALGCLVKDYFPEPVTVSWNSGALTSGVHTFPAVLQSSGLYSLSSVVTVPSSSLGTQTYICNVNHKPSNTKVDKKVEPKSCDKTHTCPPCPAPEAAGGPSVFLFPPKPKDTLMISRTPEVTCVVVDVSHEDPEVKFNWYVDGVEVHNAKTKPREEQYNSTYRVVSVLTVLHQDWLNGKEYKCKVSNKALPAPIEKTISKAKGQPREPQVCTLPPSRDELTKNQVSLSCAVKGFYPSDIAVEWESNGQPENNYKTTPPVLDSDGSFFLVSKLTVDKSRWQQGNVFSCSVMHEALHNHYTQKSLSLSPG
light: not shown
notes: FAP:LTBR 1:1 heterodimer of LTBR VHH (clone 1.7) paired with FAP Fab (clone 3.5), human IgG1 LALA
B5: Clone 4.5 (bispecific antibody, human IgG1, kappa, L234A L235A)
heavy 1: not shown
heavy 2: B4 heavy 2
light: not shown
notes: FAP:LTBR 2:1 heterodimer of FAP mAb (clone 3.5) with C terminal fused LTBR VHH (clone 1.6), human IgG1 LALA

T3 sequence (P36941 31-227 limits assumed): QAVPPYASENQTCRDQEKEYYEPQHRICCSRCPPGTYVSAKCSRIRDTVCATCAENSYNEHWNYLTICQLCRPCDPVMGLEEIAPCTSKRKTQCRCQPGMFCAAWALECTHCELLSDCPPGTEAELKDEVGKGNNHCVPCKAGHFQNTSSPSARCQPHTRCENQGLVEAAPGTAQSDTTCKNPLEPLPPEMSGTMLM

The first test deals with T1, human LTBR endogenously expressed on cells (HepG2, A549, A375, HCC1187, RPMI-7951, primary human breast CAFs) (human, UniProt P36941 31-435). Nature of the test: cell-based or functional assay.
T1 sequence (P36941 31-435): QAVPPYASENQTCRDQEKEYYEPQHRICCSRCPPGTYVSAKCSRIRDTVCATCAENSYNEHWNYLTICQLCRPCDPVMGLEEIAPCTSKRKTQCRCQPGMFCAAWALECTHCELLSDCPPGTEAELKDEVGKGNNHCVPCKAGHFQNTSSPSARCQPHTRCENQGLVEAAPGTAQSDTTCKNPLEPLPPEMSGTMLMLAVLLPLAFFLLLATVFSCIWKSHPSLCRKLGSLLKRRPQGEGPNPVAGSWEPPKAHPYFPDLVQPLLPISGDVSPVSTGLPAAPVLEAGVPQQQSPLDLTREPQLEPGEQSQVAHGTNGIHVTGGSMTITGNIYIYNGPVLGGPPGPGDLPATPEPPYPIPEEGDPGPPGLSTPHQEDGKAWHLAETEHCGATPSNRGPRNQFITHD
Consider B1, for which the “HepG2 Reporter assay, HepG2:FAP-CHO-K1 Co-culture EC50” value came out at 0.06 nM.
As for B2, the “HepG2 Reporter assay, HepG2:FAP-CHO-K1 Co-culture EC50” value was determined as 0.031 nM.
Same read-out and setting: in the case of B3 it was 0.053 nM; in that of B4, 0.03 nM; in that of B5, 0.04 nM.

The target in a further test is T1, human LTBR endogenously expressed on …. As to the kind of experiment: cell-based or functional assay. The source holds these as a separate data set.
For the molecule B1, the “CCL19 upregulation, HCC1187:CAF Co-culture EC50” value (shortened to “CCL19 upregulation”) amounted to 0.09 nM.
In the case of B2, the “CCL19 upregulation” value was 0.054 nM.
Regarding B3, the “CCL19 upregulation” value was determined as 0.013 nM.
In the case of B4, the “CCL19 upregulation” value was determined as 0.06 nM.
On to B5, for which the “CCL19 upregulation” value was 0.023 nM.

For another test the target is unchanged. Nature of the test: cell-based or functional assay. This is another data set of the same source.
Turning to B1, the “ICAM1 upregulation in CAFs monoculture assay EC50” value (from here on “ICAM1 upregulation”) came out at 0.04 nM.
On the same count and under the same terms, in the case of B2 it was 0.0048 nM.
Consider B3, for which the “ICAM1 upregulation” value was found to be 0.01 nM.
For B4, the “ICAM1 upregulation” value is 0.019 nM.
With B5, the “ICAM1 upregulation” value is 0.011 nM.

The target is the same in the next test. As to the kind of experiment: cell-based or functional assay. This is another data set of the same source.
In the case of B1, the “chemokine (CCL5) induction in RPMI-7951 EC50” value (“chemokine (CCL5) induction” for short) was found to be 0.1 nM.
B2: the “chemokine (CCL5) induction” value was 0.028 nM.
On to B3, for which the “chemokine (CCL5) induction” value was found to be 0.024 nM.
Same read-out and setting: in the case of B4 it was 0.063 nM; in that of B5, 0.018 nM.

The target is the same in a further test. As to the kind of experiment: cell-based or functional assay. This is another data set of the same source.
B1: the “HCC-1187:RPMI7951 (cis-activation) co-culture assay CCL5 read-out EC50” value is 0.12 nM and the “HCC-1187:RPMI7951 (trans-activation) co-culture assay, CCL19 Read-out EC50” value came out at 0.11 nM.
B2: the “HCC-1187:RPMI7951 (cis-activation) co-culture assay CCL5 read-out EC50” value was determined as 0.012 nM.
The same measure, in the same setting: in the case of B3 it was 0.013 nM.
B4: the “HCC-1187:RPMI7951 (cis-activation) co-culture assay CCL5 read-out EC50” value came out at 0.11 nM and the “HCC-1187:RPMI7951 (trans-activation) co-culture assay, CCL19 Read-out EC50” value is 0.16 nM.
B5: the “HCC-1187:RPMI7951 (cis-activation) co-culture assay CCL5 read-out EC50” value amounted to 0.012 nM.

The target is the same in a further test. As to the kind of experiment: flow cytometry, A549 cells. The protocol:
(§1) In short, 1×10⁶ cells were resuspended in the FACS buffer (1% BSA, 0.1% Sodium Azide in PBS), and 50 μl was added to each well (5×10⁴ cells/well) of a 96-U bottom plate. The cells were washed once and resuspended in 50 μl/well of FACS buffer containing a 1:3, 11-point series dilutions of constructs 4.1-4.6 and clones 4.8-4.9 followed by 1 h incubation at 4° C. […] Next, cells were washed and resuspended in FACS buffer and read on Beckman Coulter CytoFLEX. The data were analysed using FloJo V10 and GraphPad Prism v9. Clone 4.7 was tested for binding to A375 (LTBR positive cell line) and the HEK293-FAP overexpressing cell line, as described in examples 2.4 and 3.5. The EC50 values can be found in.
Usually EC50 stands for the midpoint of the concentration-response curve. Consider B1, for which the EC50 was 6.9 nM.
Turning to B2, the EC50 turned out to be 45 nM.
The molecule B4 gave an EC50 of 3.2 nM.
Consider B5, for which the EC50 was 29 nM.

The next test has as its target T2, human FAP expressed on cells (transfected HEK293; FAP-CHO-K1 recombinant cell line, BPS cat no. 79947) (human, UniProt Q12884 1-760).
T2 construct: also called HuFAP-HEK293; Hek-FAP
Nature of the test: flow cytometry, FAP-CHO-K1 cells. The method, then:
as §1
A general note: In flow cytometry, cells or beads pass a laser one at a time.
As for B1, the EC50 was determined as 0.8 nM.
B2: the EC50 was 0.2 nM.
With B3, the EC50 was 0.33 nM.
Regarding B4, the EC50 was 0.47 nM.
As to B5, the EC50 was 0.11 nM.

A further test concerns the target T3, Biotinylated hLTBR-His-Avitag (Acro, cat no LTR-H82E9-25 µg) (human, UniProt P36941 31-227, biotinylated (Avitag)).
T3 construct: bought protein loaded on SA Streptavidin biosensors
Nature of the test: BLI (Octet), biotinylated LTBR on SA sensor, antibody as analyte. The method, then: Briefly, Biotinylated hLTBR-His-Avitag (Acro, cat no LTR-H82E9-25 μg) was loaded on SA Streptavidin biosensors (Fortebio) in kinetics buffer (ForteBio) followed by a 2-fold dilution series starting at 50 nM of FAP/LTBR bispecific antibodies. Binding kinetics were studied in a 1× Kinetics buffer where the association was allowed for 100 seconds, followed by dissociation for 300 seconds. Data generated were referenced by subtracting a parallel buffer blank, the baseline was aligned with the y-axis, inter-step correlation by alignment against dissociation was performed, and the data were smoothed by a Savitzky-Golay filter in the data analysis software. The processed data were fitted using a 1:1 Langmuir binding model with R\hat{ }2 as a measurement of fitting accuracy. The KD and R\hat{ }2 values can be found in.
Background: Biolayer interferometry detects binding as a change in optical thickness at a sensor tip.
In general, Kd refers to the concentration at which binding is half-saturated. Consider B1, for which the affinity, expressed as Kd, was 3.1 nM.
For the molecule B2, the affinity, expressed as Kd, was 4.6 nM.
In the case of B3, binding was put at a Kd of 4.3 nM.
As to B4, the Kd stood at 3.2 nM.
Take B5: the Kd came to 6.5 nM.

For another test, the target named is cynomologus recombinant LTBR (Octet, Example 4.8) (cynomolgus (Macaca fascicularis), UniProt P36941 31-227 (human entry), limits assumed). Nature of the test: BLI (Octet), cyno LTBR immobilised on ARG sensor, antibody at 25 nM. The protocol: A 2-fold series dilution starting at 50 nM of cynomologus recombinant LTBR was immobilised on the surface of ARG biosensors (Fortebio), followed by FAP/LTBR bispecific at 25 nM. Binding kinetics were studied in a 1× Kinetics buffer where the association was allowed for 180 seconds, followed by dissociation for 100 seconds. Sensor tips were regenerated using ethylene glycol. Data generated were referenced by subtracting a parallel buffer blank, the baseline was aligned with the y-axis, inter-step correlation by alignment against dissociation was performed, and the data were smoothed by a Savitzky-Golay filter in the data analysis software. The processed data were fitted using a 1:1 Langmuir binding model with R\hat{ }2 as a measurement of fitting accuracy. The KD values can be found in.
cynomologus recombinant LTBR (Octet, Example 4.8), sequence (P36941 other isoform, or with tags, fused parts or gaps limits assumed): as the sequence (P36941 31-227 limits assumed) above, with A2V, A7G, Q24R, I45S, N163D, K181R, L184S, P186S counted along it
On to B1, for which the equilibrium dissociation constant (Kd) came to 5.78 nM.
For the molecule B2, the Kd stood at 8.3 nM.
Take B3: the Kd worked out at 17.1 nM.
As for B4, the Kd turned out to be 6.75 nM.
On the same count and under the same terms, in the case of B5 it was 5.22 nM.

The next test deals with T4, human FAP (Acro, cat no FAP-H82Q6) (human, UniProt Q12884 26-760).
T4 construct: 'FAP is naturally a dimeric antigen'
As to the kind of experiment: BLI (Octet), antibody captured by anti-Fc, FAP as analyte; * value outside instrument specifications. The method, then:
Binding to recombinant FAP proteins was investigated by Bio-Layer Interferometry (BLI) using the Octet instrument. Using standard amine coupling chemistry, an anti-Fc antibody was immobilised on the surface of ARG biosensors (Fortebio). The FAP/LTBR bispecific antibodies were loaded on the previously coated surface with anti-Fc capture antibody, followed by a 2-fold series dilution starting at 50 nM of either cyno FAP (Acro, cat no FAP-C82Q5) or human FAP (Acro, cat no FAP-H82Q6). Binding kinetics were studied in a 1× Kinetics buffer where the association was allowed for 200 seconds, followed by dissociation for 400 seconds. Sensor tips were regenerated using 10 mM Glycine pH 2.0. Data generated were referenced by subtracting a parallel buffer blank, the baseline was aligned with the y-axis, inter-step correlation by alignment against dissociation was performed, and the data were smoothed by a Savitzky-Golay filter in the data analysis software. The processed data were fitted using a 1:1 Langmuir binding model with R\hat{ }2 as a measurement of fitting accuracy. The Results are summarised in. Avidity was observed as FAP is naturally a dimeric antigen, and the limited detection by Octet with these molecules has been reached. Species cross-reactivity has been confirmed for all test samples.
The molecule B1 had a Kd of 0.192 nM.
Consider B2, for which the Kd turned out to be 0.231 nM.
Regarding B3, binding was characterised by a dissociation constant (Kd) of 0.0443 nM.
Regarding B4, binding was put at a Kd of 0.325 nM.
B5: the Kd worked out at 0.1 nM.
